Results reported in US20040053278A1 (JAPANESE FOUNDATION FOR CANCER RESEARCH, published 2004).

Assays:
[1] = biological target: T1, wild type (wt) HA-tagged TβR-I (UniProt P36897 34-503, limits assumed); experiment: affinity cross-linking with 125I-TGF-β1, anti-FLAG immunoprecipitation from COS-7 lysates, SDS-PAGE and autoradiography
T1 construct: whole, on cells; also called wild type TβR-I; TGF-β type I receptor
T1 sequence (looked up): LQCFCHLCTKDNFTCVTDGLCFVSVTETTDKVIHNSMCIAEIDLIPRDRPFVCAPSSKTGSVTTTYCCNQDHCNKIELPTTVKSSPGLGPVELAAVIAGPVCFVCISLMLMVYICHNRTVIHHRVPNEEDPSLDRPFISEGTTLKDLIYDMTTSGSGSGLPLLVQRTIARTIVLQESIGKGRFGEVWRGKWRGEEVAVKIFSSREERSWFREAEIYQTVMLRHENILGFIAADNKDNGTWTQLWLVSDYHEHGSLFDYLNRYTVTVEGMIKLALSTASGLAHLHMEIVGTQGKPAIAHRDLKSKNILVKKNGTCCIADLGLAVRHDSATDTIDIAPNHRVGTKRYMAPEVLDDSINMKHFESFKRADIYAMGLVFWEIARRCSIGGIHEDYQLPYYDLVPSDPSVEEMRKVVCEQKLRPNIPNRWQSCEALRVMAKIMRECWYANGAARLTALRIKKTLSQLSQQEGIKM
Excerpt: The interaction of Smad6 with the type I receptors was examined in affinity cross-linking assays. COS-7 cells were transfected with FLAG-tagged Smad6 (F-Smad6) or FLAG-tagged Smad2 (F-Smad2) in combination with the wild type (wt) or kinase-defective (KR) HA-tagged TβR-I and hexahistidine-tagged TβR-II. Cells were affinity labeled with ¹²⁵I-TGF-β1 and lysates were immunoprecipitated with anti-HA antibody or anti-FLAG M2 antibody. Immune complexes were subjected to SDS-PAGE and autoradiography. Smad6 bound to both wild type and kinase-defective TβR-I depending on the kinase activity of TβR-II. […] Similarly to Smad2, the binding of Smad6 to TβR-I required the kinase activity of TβR-II (FIG. 2a). Smad6, however, stably bound to the wild type TβR-I.

[2] = biological target: T2, Smad6 (epitope-tagged, heteromerization experiment of Example 4) (mouse, UniProt O35182 1-495); experiment: co-immunoprecipitation and Western blot from transfected COS-7 cells
T2 construct: Whole coding region of mouse Smad6, expressed inside COS-7 cells
T2 sequence: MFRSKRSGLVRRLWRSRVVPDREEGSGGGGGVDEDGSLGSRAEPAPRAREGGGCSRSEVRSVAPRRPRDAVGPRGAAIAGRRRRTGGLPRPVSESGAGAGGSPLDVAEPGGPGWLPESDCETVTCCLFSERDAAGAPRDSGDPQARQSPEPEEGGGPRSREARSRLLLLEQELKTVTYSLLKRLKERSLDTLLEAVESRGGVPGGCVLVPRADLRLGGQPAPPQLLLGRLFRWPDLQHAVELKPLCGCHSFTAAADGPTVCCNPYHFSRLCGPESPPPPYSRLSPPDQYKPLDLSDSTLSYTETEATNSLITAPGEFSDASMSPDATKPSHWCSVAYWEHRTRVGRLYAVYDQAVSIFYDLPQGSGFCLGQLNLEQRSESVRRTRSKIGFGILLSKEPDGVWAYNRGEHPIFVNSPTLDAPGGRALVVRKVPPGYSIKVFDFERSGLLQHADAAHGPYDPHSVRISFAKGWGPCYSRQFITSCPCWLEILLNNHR
Excerpt: COS-7 cells were transiently transfected using DMRIE-C (Gibco/BRL, Gaithersburg, Md.). [³²P]orthophosphate- or [³⁵]methionine/cysteine-labeling and immunoprecipitation were done as described by Nakao et al. (J. Biol. Chem. 272:2896-2900, 1997). For Western blot of the immunoprecipitated proteins, tagged proteins were detected by chemiluminescence (ECL, Amersham, Arlington Heights, Ill.).
Smad2 heteromerizes with Smad4 upon phosphorylation by TβR-I (Lagna et al., 1996). It was recently shown that TGF-β also induces association of Smad2 and Smad3 (Nakao et al., EMBO. J. 16:5353-5362, 1997). The effect of Smad6 on the heteromerization of these Smads was examined (FIG. 4). COS-7 cells were transfected with the indicated combination of plasmids and subjected to immunoprecipitation followed by Western blot detection. Expression levels of Smad2 (bottom), Smad4 (middle), and Smad6 (middle) were monitored.

B1: FLAG-tagged Smad2 (other, not shown: small tags and cut ends)
chain: SSILPFTPPVVKRLLGWKKSAGGSGGAGGGEQNGQEEKWCQKAVKSLVKKLKKTGRLDELEKAITTQNCNTKCVTIPSTCSEIWGLSTANTVDQWDTTGLYSFSEQTRSLDGRLQVSHRKGLPHVIYCRLWRWPDLHSHHELKAIENCEYAFNLKKDEVCVNPYHYQRVETPVLPPVLVPRHTEILTELPPLDDYTHSIPENTNFPAGIEPQSNYIPETPPPGYISEDGETSDQQLNQSMDTGSPAELSPTTLSPVNHSLDLQPVTYSEPAFWCSIAYYELNQRVGETFHASQPSLTVDGFTDPSNSERFCLGLLSNVNRNATVEMTRRHIGRGVRLYYIGGEVFAECLSDSAIFVQSPNCNQRYGWHPATVCKIPPGCNLKIFNNQEFAALLAQSVNQGFEAVYQLTRMCTIRMSFVKGWGAEYRRQTVTSTPCWIELHLNGPLQWLDKVLTQMGSPSVRCSSMS
notes: Expressed inside COS-7 cells; also called F-Smad2
[1]
  binding result: no binding

B2: Smad2 (epitope-tagged, heteromerization experiment of Example 4) (other, not shown: small tags and cut ends)
chain: SSILPFTPPVVKRLLGWKKSAGGSGGAGGGEQNGQEEKWCQKAVKSLVKKLKKTGRLDELEKAITTQNCNTKCVTIPSTCSEIWGLSTANTVDQWDTTGLYSFSEQTRSLDGRLQVSHRKGLPHVIYCRLWRWPDLHSHHELKAIENCEYAFNLKKDEVCVNPYHYQRVETPVLPPVLVPRHTEILTELPPLDDYTHSIPENTNFPAGIEPQSNYIPETPPPGYISEDGETSDQQLNQSMDTGSPAELSPTTLSPVNHSLDLQPVTYSEPAFWCSIAYYELNQRVGETFHASQPSLTVDGFTDPSNSERFCLGLLSNVNRNATVEMTRRHIGRGVRLYYIGGEVFAECLSDSAIFVQSPNCNQRYGWHPATVCKIPPGCNLKIFNNQEFAALLAQSVNQGFEAVYQLTRMCTIRMSFVKGWGAEYRRQTVTSTPCWIELHLNGPLQWLDKVLTQMGSPSVRCSSMS
[2]
  binding result: no binding
